Values quoted from earlier work in publication PMC12669185.

Molecular target: CCR2 (Homo sapiens) (UniProt P41597)
UniProt P41597, sequence (P41597 whole entry): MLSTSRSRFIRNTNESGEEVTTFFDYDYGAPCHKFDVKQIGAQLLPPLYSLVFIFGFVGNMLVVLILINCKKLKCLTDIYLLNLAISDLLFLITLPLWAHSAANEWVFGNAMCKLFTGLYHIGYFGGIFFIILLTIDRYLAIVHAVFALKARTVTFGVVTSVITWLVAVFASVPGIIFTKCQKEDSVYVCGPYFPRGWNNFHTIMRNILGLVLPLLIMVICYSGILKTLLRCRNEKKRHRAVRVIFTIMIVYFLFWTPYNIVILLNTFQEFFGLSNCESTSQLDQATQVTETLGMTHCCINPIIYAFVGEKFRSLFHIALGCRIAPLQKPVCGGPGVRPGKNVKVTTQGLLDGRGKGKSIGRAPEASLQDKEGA

## CCL2 (from UniProt P13500)
  Kd: 770 pM
